Source: paper PMC8034652 (Nucleic Acids Research, 2021)

Key:
[1] = molecular target: the molecule itself; assay: crystal structure
[2] = molecular target: the molecule itself; assay: […]
[3] = molecular target: T1, FOXC2-DBD (UniProt Q99958 72-171); assay: crystal structure
T1 sequence: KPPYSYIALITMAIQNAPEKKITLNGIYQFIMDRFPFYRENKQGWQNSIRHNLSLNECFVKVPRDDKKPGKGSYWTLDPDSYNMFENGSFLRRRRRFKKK

[4] = molecular target: T2, FOXO1-DBD (human, UniProt Q12778 151-266); assay: crystal structure
[5] = molecular target: T2, FOXO1-DBD; assay: ITC
[6] = molecular target: FOXO1-DBD R225E (human, UniProt Q12778 151-266, R225E); assay: EMSA
[7] = molecular target: FOXO1-DBD Q227R (human, UniProt Q12778 151-266, Q227R); assay: EMSA
[8] = molecular target: T1, FOXC2-DBD; assay: EMSA
[9] = molecular target: T3, FOXM1-DBD (UniProt Q08050 222-360); assay: EMSA
T3 sequence: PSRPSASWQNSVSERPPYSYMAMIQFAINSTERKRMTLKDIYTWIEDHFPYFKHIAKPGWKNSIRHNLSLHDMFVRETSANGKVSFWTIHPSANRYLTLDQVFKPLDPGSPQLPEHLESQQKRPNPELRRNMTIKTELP

[10] = molecular target: T4, FOXI1-DBD (UniProt Q12951 119-223); assay: EMSA
T4 sequence: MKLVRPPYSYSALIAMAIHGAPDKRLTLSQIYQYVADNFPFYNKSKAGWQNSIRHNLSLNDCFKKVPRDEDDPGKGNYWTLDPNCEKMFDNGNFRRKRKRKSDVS

[11] = molecular target: FOXO3-DBD (UniProt O43524 158-253); assay: EMSA

B1: human FOXO1-DBD (residues 151-266) (domain or fragment)
chain: KSSSSRRNAWGNLSYADLITKAIESSAEKRLTLSQIYEWMVKSVPYFKDKGDSNSSAGWKNSIRHNLSLHSKFIRVQNEGTGKSSWWMLNPEGGKSGKSPRRRAASMDNNSKFAKS
- stoichiometry N [1]: 2

B2: FOXI1-DBD (residues 119-223) (domain or fragment)
chain: MKLVRPPYSYSALIAMAIHGAPDKRLTLSQIYQYVADNFPFYNKSKAGWQNSIRHNLSLNDCFKKVPRDEDDPGKGNYWTLDPNCEKMFDNGNFRRKRKRKSDVS
- binding result [2]: binds

B3: DIV2 20-bp crystal DNA (dsDNA)
DNA 1: ACCGTAAACATGTTTACGGT
DNA 2: ACCGTAAACATGTTTACGGT
- binding result [3]: binds
- binding result [4]: binds

B4: FKH_26 (dsDNA)
DNA 1: GACGAAGTAAACACGGCAGGTTCGTC
DNA 2: GACGAACCTGGCGTGTTTACTTCGTC
- Kd [5]: 1380 nM
- binding result [6]: binds
- binding result [7]: binds

B5: FOXO3-DBD (residues 158-253) (domain or fragment)
chain: GNLSYADLITRAIESSPDKRLTLSQIYEWMVRCVPYFKDKGDSNSSAGWKNSIRHNLSLHSRFMRVQNEGTGKSSWWIINPDGGKSGKAPRRRAVS
- binding result [2]: binds

B6: DIV2_26 (dsDNA)
DNA 1: GACGAAGTAAACATGTTTACTTCGTC
DNA 2: GACGAAGTAAACATGTTTACTTCGTC
- binding result [8]: binds
- binding result [9]: binds
- binding result [10]: binds
- binding result [11]: binds
- Kd [5]: 150 nM
